The record followed here is patent publication US7316915 (TANOX, dated 2008).

Where no end group is shown, it is not given here.

The target of assay [1] is T1, BakΔ3 (N-terminal deletion mutant of Bak, amino acids 96-210 of full-length Bak) (Homo sapiens (Human), UniProt Q16611 96-211).
T1 construct: Produced in Sf9 cells by baculovirus and used as an NP-40 cell extract
T1 sequence: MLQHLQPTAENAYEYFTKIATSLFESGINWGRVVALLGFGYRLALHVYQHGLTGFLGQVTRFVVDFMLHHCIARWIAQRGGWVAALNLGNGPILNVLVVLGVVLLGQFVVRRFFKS
Kind of assay: GST pull-down from Sf9 extract, immunoblot with anti-Bak.

The target in assay [2] is T2, Bak (expressed in yeast, used as lysate) (Homo sapiens (Human), UniProt Q16611 1-211, limits assumed).
T2 construct: also called full-length Bak
T2 sequence: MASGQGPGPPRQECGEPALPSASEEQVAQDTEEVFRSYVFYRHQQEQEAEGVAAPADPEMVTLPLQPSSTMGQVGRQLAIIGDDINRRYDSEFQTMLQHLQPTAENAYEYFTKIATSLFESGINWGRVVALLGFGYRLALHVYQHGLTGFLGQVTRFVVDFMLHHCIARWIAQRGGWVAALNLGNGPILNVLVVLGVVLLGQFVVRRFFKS
Briefly: GST fusion on glutathione-Sepharose column, yeast lysate expressing Bak, Western blot.

For assay [3], the target named is T3, Bak expressed as a fusion protein with the binding domain (BD) of GAL4 (yeast, UniProt P04386 1-147).
T3 construct: range 1-147; Yeast two-hybrid bait; also called GAL4-Bak fusion protein
Kind of assay: yeast two hybrid (GAL4 AD and BD fusions).

In assay [4] the target is T4, BBP expressed as a fusion protein with the binding domain (BD) of GAL4 (yeast; human, UniProt P04386 1-147).
T4 construct: range 1-147; also called BBP-BD
Briefly: yeast two hybrid (GAL4 AD and BD fusions).

Assay [5] concerns the target Bax expressed as a fusion protein with the binding domain (BD) of GAL4 (yeast, UniProt P04386 1-147; Q07812 1-192, limits assumed). Briefly: yeast two hybrid.
The target of assay [6] is Bcl2 expressed as a fusion protein with the binding domain (BD) of GAL4 (yeast, UniProt P04386 1-147; P10415 1-239, limits assumed). Briefly: yeast two hybrid.

B1: gst fusion protein containing BBP-Loop2 (internal loop of BBP, amino acids 86 through 133) (other)
chain: HTGYIKVDWQRVEKDMKKAKEQLKIRKSNQIPTEVRSKAEEVVSFVKK
modifications: not fully specified (N-terminus); also: fused to glutathione-S-transferase (GST), not in chain
notes: It was subcloned into pGEX-5X in frame with gst; also called BBP-L2; gst-BBP-L2; not shown: glutathione-S-transferase (gst) as encoded by vector pGEX-5X (Pharmacia)
As for B1, the values for the binding result in assay [1] and in assay [2] were “no binding” and “binds”, respectively.

B2: gst fusion protein containing BBP-Loop1 (N-terminal 42 amino acid portion of BBP) (other)
chain: MAASSQGNFEGNFESLDLAEFAKKQPWWRKLFGQESGPSAEK
modifications: not fully specified (N-terminus); also: fused to glutathione-S-transferase (GST), not in chain
notes: It was subcloned into pGEX-5X in frame with gst; also called BBP-L1; gst-BBP-L1; not shown: glutathione-S-transferase (gst) as encoded by vector pGEX-5X (Pharmacia)
Take B2: the binding result in assay [2] is recorded as “binds”.

B3: BBP expressed as a fusion protein with the activation domain (AD) of GAL4 (other, yeast)
chain: ANFNQSGNIADSSLSFTFTNSSNGPNLITTQTNSQALSQPIASSNVHDNFMNNEITASKIDDGNNSKPLSPGWTDQTAYNAFGITTGMFNTTTMDDVYNYLFDDEDTPPNPKKEMAASSQGNFEGNFESLDLAEFAKKQPWWRKLFGQESGPSAEKYSVATQLFIGGVTGWCTGFIFQKVGKLAATAVGGGFFLLQLANHTGYIKVDWQRVEKDMKKAKEQLKIRKSNQIPTEVRSKAEEVVSFVKKNVLVTGGFFGGFLLGMAS
notes: range 768-881; Yeast two-hybrid prey; also called BBP-AD
B3: the binding result in assay [3] is given as “binds”; in assay [4], “binds”; in assay [5], “no binding”; in assay [6], “no binding”.

B4: gst fusion protein containing full-length BHRF-1 (other)
chain: MAYSTREILLALCIRDSRVHGNGTLHPVLELAARETPLRLSPEDTVVLRYHVLLEEIIERNSETFTETWNRFITHTEHVDLDFNSVFLEIFHRGDPSLGRALAWMAWCMHACRTLCCNQSTPYYVVDLSVRGMLEASEGLDGWIHQQGGWSTLIEDNIPGSRRFSWTLFLAGLTLSLLVICSYLFISRGRH
notes: not shown: glutathione-S-transferase (gst)
In the case of B4, the binding result in assay [2] was “binds”.
